From patent US9144594B2, “Cathepsin L mediated diseases and associated methods and products” (University of Miami, priority 2005, dated 2015)
Where a chain is given by its changes, count along the chain named. Names may count otherwise.

B1: dynK694A: dominant activator dynamin mutant impaired in self-assembly (protein)
chain: MGNRGMEDLIPLVNRLQDAFSAIGQNADLDLPQIAVVGGQSAGKSSVLENFVGRDFLPRGSGIVTRRPLVLQLVNATTEYAEFLHCKGKKFTDFEEVRLEIEAETDRVTGTNKGISPVPINLRVYSPHVLNLTLVDLPGMTKVPVGDQPPDIEFQIRDMLMQFVTKENCLILAVSPANSDLANSDALKVAKEVDPQGQRTIGVITKLDLMDEGTDARDVLENKLLPLRRGYIGVVNRSQKDIDGKKDITAALAAERKFFLSHPSYRHLADRMGTPYLQKVLNQQLTNHIRDTLPGLRNKLQSQLLSIEKEVEEYKNFRPDDPARKTKALLQMVQQFAVDFEKRIEGSGDQIDTYELSGGARINRIFHERFPFELVKMEFDEKELRREISYAIKNIHGIRTGLFTPDMAFETIVKKQVKKIREPCLKCVDMVISELISTVRQCTKKLQQYPRLREEMERIVTTHIREREGRTKEQVMLLIDIELAYMNTNHEDFIGFANAQQRSNQMNKKKTSGNQDEILVIRKGWLTINNIGIMKGGSKEYWFVLTAENLSWYKDDEEKEKKYMLSVDNLKLRDVEKGFMSSKHIFALFNTEQRNVYKDYRQLELACETQEEVDSWKASFLRAGVYPERVGDKEKASETEENGSDSFMHSMDPQLERQVETIRNLVDSYMAIVNKTVRDLMPKTIMHLMINNTAEFIFSELLANLYSCGDQNTLMEESAEQAQRRDEMLRMYHALKEALSIIGDINTTTVSTPMPPPVDDSWLQVQSVPAGRRSPTSSPTPQRRAPAVPPARPGSRGPAPGPPPAGSALGGAPPVPSRPGASPDPFGPPPQVPSRPNRAPPGVPSRSGQASPSRPESPRPPFDL
B2: dynL356Q, G358V: dynamin mutant (SEQ ID NO.3) not recognized by cathepsin L; ELSGGA mutated to EQSVGA (protein, listed as Homo sapiens)
chain: B1 chain with L356Q, G358V, A694K
B3: dynR725A: dynamin mutant (SEQ ID NO.4) with impaired GTP hydrolysis capacity (protein, listed as Homo sapiens)
chain: B1 chain with A694K, R725A

Assays:
CatL = experiment: Dynamin p40 fragment in kidney extracts after gene delivery and LPS injection; format: in vivo, mouse; settings: LPS injected at the time of gene delivery
Chain of CatL (P06797 114-333 limits assumed): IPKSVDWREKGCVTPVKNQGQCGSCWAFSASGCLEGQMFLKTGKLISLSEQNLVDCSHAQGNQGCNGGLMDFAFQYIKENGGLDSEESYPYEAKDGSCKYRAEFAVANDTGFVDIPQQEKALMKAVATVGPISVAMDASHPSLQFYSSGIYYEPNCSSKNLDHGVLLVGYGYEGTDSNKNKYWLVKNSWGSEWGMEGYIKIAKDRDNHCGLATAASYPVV
Excerpt: Next the cleavage pattern of dyn1 in kidney extracts following LPS injection was examined. Kidney cytosols were probed with antibody against the GTPase domain of dynamin, which detects p40. […] Western blotting also detected a dynamin fragment of ˜55 kD. As in cultured podocytes, the presence of this fragment was LPS- and CatL-independent (FIGS. 20B, lane 5 and 20C, lanes 1 and 2), further supporting the idea that it is generated by other proteases during tissue preparation.
Four mice kidneys were homogenized in buffer containing 20 mM HEPES pH 7.5, 100 mM NaCl, 1 mM MgCl2, 1 mM PMSF, proteinase inhibitors, calpain inhibitor (Calbiochem, San Diego, Calif.) and E-64d using dounce homogenizer. Subsequently, cytosol was centrifuged for 10 min at 7000 rpm. Proteins were solubilized by 1% Triton X, 1 h at 4° C., before it was spun at 50,000 rpm for 1 h.
CatL plasmids encoding short and long CatL (Goulet et al., Biol Chem 387, 1285-1293 (2004)), Dyn1 plasmids (pcDNA-driven) or p2.5 Podocin-driven (Moeller et al., Genesis 35, 39-42 (2003)) were introduced into mice (n>10, each construct) using the TransIT in vivo gene delivery system according to the manufacturer's instruction (Mirus Bio Corporation, Madison, Wis.). 10 and 24 h after gene delivery, proteinuria was assessed by Multistix 8 SG strips (Bayer Corporation, Elkhart, Ind.), and Bradford protein assay (Sigma, Saint Louis, Mo.). From the same urines the protein creatinine ratio was determined with Albuwell M and Creatinine Companion protein creatinine ELISA kits (Exocell Inc., Philadelphia, Pa.).

dynamin = experiment: Dynamin self-assembly, apparent affinity measured in vitro; format: biochemical
Excerpt: The fact that this significant decrease in the fluorescence lifetime of ECFP is statistically insignificant is due to high fluctuations of the lifetimes between different cells (high error bar in Table 3). This is most likely due to ability of dynK694A to overcome its assembly defect under certain circumstances as shown in vitro. The fact that ECFP-dynK694A has a faster lifetime than ECFP-dynI690K is in agreement with its less severe assembly defect measured in vitro (apparent affinity of dynK694A is ˜7-fold lower then dynWT, whereas it is unmeasurable for dynI690K).

Molecule | generation of p40 in kidney extracts, in words (CatL) | apparent affinity for self-assembly, fold lower than dynWT (dynamin) [fold]
dynWT: wild type dynamin overexpressed by adenovirus or delivered as dynamin 1 cDNA | generation of p40 | –
B1 | – | ~7
B2 | not generated | –
B3 | did not result in generation of p40 | –
